Reference: publication PMC11763261

T1: CTB5-MBP (OsHox14, HD-Zip I) (Oryza sativa (japonica; KMXBG or Towada …, UniProt Q7XI85 1-240)
T1 sequence: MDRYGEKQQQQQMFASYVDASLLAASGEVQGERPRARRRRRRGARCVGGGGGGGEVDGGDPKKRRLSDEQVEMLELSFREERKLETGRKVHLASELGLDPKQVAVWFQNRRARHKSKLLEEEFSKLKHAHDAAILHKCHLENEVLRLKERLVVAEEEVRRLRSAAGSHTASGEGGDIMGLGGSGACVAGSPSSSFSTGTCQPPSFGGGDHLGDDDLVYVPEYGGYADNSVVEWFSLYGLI

B1: PYL9 promoter probe WT (AH1 motif) (dsDNA)
DNA 1: AAAATATATTCAATTATTGATTTGAAACTA
DNA 2: TAGTTTCAAATCAATAATTGAATATATTTT
B2: OsGA2ox6 promoter probe mutant (dsDNA)
DNA 1: CGGGGATGTGCAGTTCCCCCCATTTTGTATAAGATT
DNA 2: AATCTTATACAAAATGGGGGGAACTGCACATCCCCG
B3: OsGA2ox6 promoter probe WT (dsDNA)
DNA 1: CGGGGATGTGCAGTTTAATTAATTTTGTATAAGATT
DNA 2: AATCTTATACAAAATTAATTAAACTGCACATCCCCG
B4: OsGA3ox1 promoter probe mutant (dsDNA)
DNA 1: ATAGGAAAAAAAATTGGGGGGGGCTTAAATTTTTTGAA
DNA 2: TTCAAAAAATTTAAGCCCCCCCCAATTTTTTTTCCTAT
B5: OsGA3ox1 promoter probe WT (dsDNA)
DNA 1: ATAGGAAAAAAAATTAATAATTACTTAAATTTTTTGAA
DNA 2: TTCAAAAAATTTAAGTAATTATTAATTTTTTTTCCTAT

The binders below were run against T1, CTB5-MBP (OsHox14, HD-Zip I) (assay: EMSA).

Row | Binder | binding result
1 | B1 | binds
2 | B2 | no binding
3 | B3 | binds
4 | B4 | no binding
5 | B5 | binds
